Target: fluorogenic OmpT peptide substrate (FIG. 10)
Test: cell-based or functional assay

OmpT protease of E. coli, expressed from multicopy plasmid pML19 in UT5600 cells (from UniProt P09169 21-317) (enzyme)
mean fluorescence intensity of cells by FACS after 10 min exposure to the substrate: 30 fold
